Experiment [1] deals with cynomolgus TIM-3 on isolated cyno CD14+ monocytes (cynomolgus). The experiment in a line: flow cytometry, cyno CD14+ monocytes cyno1. Background: Flow cytometry measures light scatter and fluorescence of single cells or particles in a stream.
Experiment [2] has the same target. Briefly: flow cytometry, cyno CD14+ monocytes cyno2.
Experiment [3] shares this target. The experiment in a line: flow cytometry, cyno CD14+ monocytes cyno3.
For experiment [4], the target named is human TIM-3 on cells (human) (UniProt Q8TDQ0). Briefly: flow cytometry, human CD14+ monocytes donor1.
The target is the same in experiment [5]. Briefly: flow cytometry, human CD14+ monocytes donor2.
The target is the same in experiment [6]. Briefly: flow cytometry, human CD14+ monocytes donor3.
For experiment [7] the target is unchanged. The experiment in a line: FACS competition on RPMI-8226, competitor TIM3-0016.
For experiment [8] the target is unchanged. The experiment in a line: FACS competition on RPMI-8226, competitor TIM3-0018.
For experiment [9] the target is unchanged. The experiment in a line: FACS competition on RPMI-8226, competitor TIM3-0026.
For experiment [10] the target is unchanged. Briefly: FACS competition on RPMI-8226, competitor TIM3-0038.
In experiment [11] the target is cynomolgus Tim3 (ELISA) (cynomolgus). Briefly: ELISA, cyno Tim3. (In general: An ELISA detects its analyte on a solid surface through an enzyme-linked reagent.)
The target of experiment [12] is Tim3-ECD-His-Biotin (human) (UniProt Q8TDQ0). The experiment in a line: ELISA, human Tim3.
For experiment [13], the target named is human TIM-3 on cells (human) (UniProt Q8TDQ0). Briefly: cell ELISA, CHO-Tim3.
The target is the same in experiment [14]. The experiment in a line: cell-based or functional assay.
In experiment [15] the target is huFc fused dimeric human Tim3-ECD (human) (UniProt Q8TDQ0). The experiment in a line: SPR Biacore, antibody captured by anti-mouse IgG. A general note: SPR reads the build-up and loss of mass on a sensor chip optically.
The target in experiment [16] is monomeric cyno Tim3-ECD (cynomolgus). Briefly: SPR Biacore, antibody captured by anti-mouse IgG.
The target in experiment [17] is monomeric human Tim3-ECD (human) (UniProt Q8TDQ0). Briefly: SPR Biacore, antibody captured by anti-mouse IgG.
Experiment [18] has as its target human TIM-3 on cells (human) (UniProt Q8TDQ0). The experiment in a line: FACS competition on RPMI-8226, competitor TIM3-0022.
For experiment [19] the target is unchanged. The experiment in a line: FACS competition on RPMI-8226, competitor TIM3-0028.
The target of experiment [20] is cynomolgus Tim3 (ELISA) (cynomolgus). The experiment in a line: ELISA, cyno Tim3; EC50 relative to the sample's max value.
In experiment [21] the target is Tim3-ECD-His-Biotin (human) (UniProt Q8TDQ0). The experiment in a line: ELISA, human Tim3; EC50 relative to the sample's max value.
Experiment [22] has as its target human TIM-3 on cells (human) (UniProt Q8TDQ0). The experiment in a line: cell ELISA, CHO-Tim3; EC50 relative to the sample's max value.

cynomolgus Tim3 (ELISA) (cynomolgus), sequence (chain, as listed by the source, form in doubt): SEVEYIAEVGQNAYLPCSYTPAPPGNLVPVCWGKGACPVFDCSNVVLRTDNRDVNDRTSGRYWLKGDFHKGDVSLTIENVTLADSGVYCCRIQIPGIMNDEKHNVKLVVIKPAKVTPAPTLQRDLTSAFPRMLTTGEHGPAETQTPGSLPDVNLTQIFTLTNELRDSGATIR
monomeric cyno Tim3-ECD (cynomolgus), sequence (chain, as listed by the source, form in doubt): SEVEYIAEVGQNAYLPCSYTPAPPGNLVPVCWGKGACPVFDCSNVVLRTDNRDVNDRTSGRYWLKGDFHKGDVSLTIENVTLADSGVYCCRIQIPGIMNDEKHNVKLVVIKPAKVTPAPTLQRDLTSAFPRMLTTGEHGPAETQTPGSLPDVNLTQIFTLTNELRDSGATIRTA

Turning to M-IgG1 (isotype control) (antibody), the MFI in [1] came out at 72 MFI; in experiment [2], 82 MFI; in experiment [3], 83 MFI. Moreover, the figures for the specific binding MFI in experiment [4], in experiment [5] and in experiment [6] were 144 MFI, 55 MFI and 213 MFI, respectively.

Turning to M-IgG2b (isotype control) (antibody), the specific binding MFI in [4] was 0 MFI; in experiment [5] it was 13 MFI; in [6], 0 MFI.

On to Rat-IgG2A (isotype control) (antibody), for which the MFI in experiment [1] is 84 MFI; in experiment [2], 86 MFI; in [3], 91 MFI. Besides, the specific binding MFI in experiment [4] turned out to be 71 MFI; in [5] it was 68 MFI; in experiment [6], 70 MFI.

Take “anti-TIM3 reference antibody 344823 (R&D Systems)”: the MFI in experiment [1] was found to be 158 MFI; in experiment [2], 121 MFI; in experiment [3] it was 143 MFI. The specific binding MFI in experiment [4] is 1010 MFI; in experiment [5], 917 MFI; in experiment [6] it was 814 MFI. Besides, the Max % inhibition of binding is 0% in experiment [7], 0% in experiment [8], 3% in [9] and 99% in experiment [10].

As to “anti-TIM3 reference antibody F38-2E2 (BioLegend)”, the inflexion point in [11] is 210000 ng/mL; in experiment [12] it was 86.3 ng/mL; in experiment [13], 224 ng/mL. In experiment [14], the IFN-gamma release in MLR at 1 µg/ml, % of IL-2 control was 7%. This substance also displayed an IFN-gamma release in MLR at 10 µg/ml, % of IL-2 control in [14] of 26%. The same substance gave an IFN-gamma release in MLR at 40 µg/ml, % of IL-2 control in experiment [14] of 36%. Moreover, the MFI is 135 MFI in [1], 136 MFI in experiment [2] and 124 MFI in experiment [3]. Further, the specific binding MFI in experiment [4] was 516 MFI; in [5], 493 MFI; in [6], 460 MFI. Also, the figures for the Kd in experiment [15], in experiment [16] and in experiment [17] were 7.5 nM, 168 nM and 13.6 nM, respectively. The Max % inhibition of binding was -7% in experiment [7]; -6% in [8]; 77% in experiment [18]; 2% in experiment [9]; 75% in experiment [19]; 94% in [10]. Further, the EC50 (as a rule, the midpoint of the concentration-response curve) in experiment [20] turned out to be 0.423 µg/mL; in [21] it was 0.0732 µg/mL; in experiment [22], 0.35 µg/mL.

These data come from patent publication US20210087291A1.
